# PMC13077772 (2025)
# Biological target: melanoma-associated antigen 3 (MAGE-A3) peptide presented by HLA-A*01:01 (human | )
# Assay: SPR
binder,measurement,value
"mage-513, purified soluble protein (designed binder, heavy chain HLA-A*01:01 ectodomain taken by convention from the MAGE-A3/HLA-A1 structure 5BRZ (candidate P04439 is a different allele, A*03:01)) LTVEEAIRLLLETQRRYPELGPEERQVADGALRVASLLLDIIATRRLLGDDDKELEKQLLKRIERLFTAPLPERRRLVEELEEPVLEEAAQAARELVKREQQ",Kd,29 nM
